Test results from the Human Domainome abundance scans (Beltran et al. 2025).
± gives the uncertainty stated by the source.

B1: Kinesin-like protein KIF16B, residues 1213 to 1273; numbered along this chain, Q96L93 (parent)
chain: ETWTVFRRYSRFREMHKTLKLKYAELAALEFPPKKLFGNKDERVIAERRSHLEKYLRDFFS

Variants of: B1
Test: abundance fitness (aPCA) (normalised: wild type 0, dead -1); higher = more abundant; growth selection in yeast, the domain comes from the species named
Conditions: Homo sapiens

| Variant | abundance fitness |
| --- | --- |
| ETWTVFRRYSRFREMHKTLKLKYAELAPLEFPPKKLFGNKDERVIAERRSHLEKYLRDFFS [A28P] | -0.424 ± 0.11 |
| ETWTVFRRYSRFREMHKTLKLKYAELACLEFPPKKLFGNKDERVIAERRSHLEKYLRDFFS [A28C] | -0.156 ± 0.13 |
| ETWTVFRRYSRFREMHKTLKLKYAELAWLEFPPKKLFGNKDERVIAERRSHLEKYLRDFFS [A28W] | -0.177 ± 0.11 |
| ETWTVFRRYSRFREMHKTLKLKYAELAMLEFPPKKLFGNKDERVIAERRSHLEKYLRDFFS [A28M] | -0.433 ± 0.16 |
| ETWTVFRRYSRFREMHKTLKLKYAELAKLEFPPKKLFGNKDERVIAERRSHLEKYLRDFFS [A28K] | -0.094 ± 0.17 |
| ETWTVFRRYSRFREMHKTLKLKYAELATLEFPPKKLFGNKDERVIAERRSHLEKYLRDFFS [A28T] | 0.009 ± 0.08 |
| ETWTVFRRYSRFREMHKTLKLKYAELAFLEFPPKKLFGNKDERVIAERRSHLEKYLRDFFS [A28F] | -0.116 ± 0.34 |
| ETWTVFRRYSRFREMHKTLKLKYAELAYLEFPPKKLFGNKDERVIAERRSHLEKYLRDFFS [A28Y] | -1.03 ± 0.39 |
| ETWTVFRRYSRFREMHKTLKLKYAELAGLEFPPKKLFGNKDERVIAERRSHLEKYLRDFFS [A28G] | -0.101 ± 0.072 |
| ETWTVFRRYSRFREMHKTLKLKYAELARLEFPPKKLFGNKDERVIAERRSHLEKYLRDFFS [A28R] | -0.036 ± 0.053 |
| ETWTVFRRYSRFREMHKTLKLKYAELASLEFPPKKLFGNKDERVIAERRSHLEKYLRDFFS [A28S] | -0.129 ± 0.1 |
| ETWTVFRRYSRFREMHKTLKLKYAELAVLEFPPKKLFGNKDERVIAERRSHLEKYLRDFFS [A28V] | -0.912 ± 0.18 |
| ETWTVFRRYSRFREMHKTLKLKYAELAILEFPPKKLFGNKDERVIAERRSHLEKYLRDFFS [A28I] | -0.311 ± 0.49 |
| ETWTVFRRYSRFREMHKTLKLKYAVLAALEFPPKKLFGNKDERVIAERRSHLEKYLRDFFS [E25V] | -0.475 ± 0.063 |
| ETWTVFRRYSRFREMHKTLKLKYAGLAALEFPPKKLFGNKDERVIAERRSHLEKYLRDFFS [E25G] | -0.384 ± 0.068 |
| ETWTVFRRYSRFREMHKTLKLKYAHLAALEFPPKKLFGNKDERVIAERRSHLEKYLRDFFS [E25H] | -0.749 ± 0.42 |
| ETWTVFRRYSRFREMHKTLKLKYAMLAALEFPPKKLFGNKDERVIAERRSHLEKYLRDFFS [E25M] | -0.409 ± 0.2 |
| ETWTVFRRYSRFREMHKTLKLKYAILAALEFPPKKLFGNKDERVIAERRSHLEKYLRDFFS [E25I] | -0.292 ± 0.18 |
| ETWTVFRRYSRFREMHKTLKLKYAYLAALEFPPKKLFGNKDERVIAERRSHLEKYLRDFFS [E25Y] | -0.542 ± 0.12 |
| ETWTVFRRYSRFREMHKTLKLKYAQLAALEFPPKKLFGNKDERVIAERRSHLEKYLRDFFS [E25Q] | 0.015 ± 0.12 |
| ETWTVFRRYSRFREMHKTLKLKYAFLAALEFPPKKLFGNKDERVIAERRSHLEKYLRDFFS [E25F] | -0.224 ± 0.12 |
| ETWTVFRRYSRFREMHKTLKLKYAALAALEFPPKKLFGNKDERVIAERRSHLEKYLRDFFS [E25A] | -0.309 ± 0.092 |

| Variant | abundance fitness |
| --- | --- |
| ETWTVFRRYSRFREMHKTLKLKYASLAALEFPPKKLFGNKDERVIAERRSHLEKYLRDFFS [E25S] | -0.238 ± 0.042 |
| ETWTVFRRYSRFREMHKTLKLKYAKLAALEFPPKKLFGNKDERVIAERRSHLEKYLRDFFS [E25K] | -0.144 ± 0.069 |
| ETWTVFRRYSRFREMHKTLKLKYALLAALEFPPKKLFGNKDERVIAERRSHLEKYLRDFFS [E25L] | -0.465 ± 0.084 |
| ETWTVFRRYSRFREMHKTLKLKYATLAALEFPPKKLFGNKDERVIAERRSHLEKYLRDFFS [E25T] | -0.468 ± 0.093 |
| ETWTVFRRYSRFREMHKTLKLKYARLAALEFPPKKLFGNKDERVIAERRSHLEKYLRDFFS [E25R] | -0.352 ± 0.06 |
| ETWTVFRRYSRFREMHKTLKLKWAELAALEFPPKKLFGNKDERVIAERRSHLEKYLRDFFS [Y23W] | 0.177 ± 0.062 |
| ETWTVFRRYSRFREMHKTLKLKTAELAALEFPPKKLFGNKDERVIAERRSHLEKYLRDFFS [Y23T] | -0.379 ± 0.14 |
| ETWTVFRRYSRFREMHKTLKLKVAELAALEFPPKKLFGNKDERVIAERRSHLEKYLRDFFS [Y23V] | 0.39 ± 0.092 |
| ETWTVFRRYSRFREMHKTLKLKYAELAAWEFPPKKLFGNKDERVIAERRSHLEKYLRDFFS [L29W] | 0.223 ± 0.052 |
| ETWTVFRRYSRFREMHKTLKLKYAELAAVEFPPKKLFGNKDERVIAERRSHLEKYLRDFFS [L29V] | -0.033 ± 0.063 |
| ETWTVFRRYSRFREMHKTLKLKYAELAACEFPPKKLFGNKDERVIAERRSHLEKYLRDFFS [L29C] | -0.228 ± 0.14 |
| ETWTVFRRYSRFREMHKTLKLKYAELAASEFPPKKLFGNKDERVIAERRSHLEKYLRDFFS [L29S] | -0.513 ± 0.11 |
| ETWTVFRRYSRFREMHKTLKLKYAELAAMEFPPKKLFGNKDERVIAERRSHLEKYLRDFFS [L29M] | 0.337 ± 0.063 |
| ETWTVFRRYSRFREMHKTLKLKYAELAAIEFPPKKLFGNKDERVIAERRSHLEKYLRDFFS [L29I] | 0.427 ± 0.22 |
| ETWTVFRRYSRFREMHKTLKLKYAELAAAEFPPKKLFGNKDERVIAERRSHLEKYLRDFFS [L29A] | 0.172 ± 0.07 |
| ETWTVFRRYSRFREMHKTLKLKYAELAAHEFPPKKLFGNKDERVIAERRSHLEKYLRDFFS [L29H] | -0.38 ± 0.41 |
| ETWTVFRRYSRFREMHKTLKLKYAELAAFEFPPKKLFGNKDERVIAERRSHLEKYLRDFFS [L29F] | -0.188 ± 0.25 |
| ETWTVFRRYSRFREMHKTLKLKYAELAAEEFPPKKLFGNKDERVIAERRSHLEKYLRDFFS [L29E] | -0.883 ± 0.12 |
| ETWTVFRRYSRFREMHKTLKLKYAELAAKEFPPKKLFGNKDERVIAERRSHLEKYLRDFFS [L29K] | -0.226 ± 0.08 |
| ETWTVFRRYSRFREMHKTLKLKYAELAAREFPPKKLFGNKDERVIAERRSHLEKYLRDFFS [L29R] | -0.192 ± 0.053 |
| ETWTVFRRYSRFREMHKTLKLKYAELAATEFPPKKLFGNKDERVIAERRSHLEKYLRDFFS [L29T] | -0.132 ± 0.073 |
